{"source": "patent US20210283212A1", "about": "(RA PHARMACEUTICALS, published 2021)", "binders": {"B1": {"name": "R3164 (peptide)", "peptide": "Ac-CAERFCD[Tle]Y[Trp(7-aza)]EYP[Phg][Lys‑C12]-NH2", "modifications": "linker 1-6 via m‑xylyl"}, "B2": {"name": "R3003 (peptide)", "peptide": "Ac-[Nva]CYEN[Tle]Y[Trp(7-aza)]EYP[Phg]P-NH2", "SMILES": "CCC[C@H](NC(C)=O)C(=O)N[C@@H](CS)C(=O)N[C@@H](Cc1ccc(O)cc1)C(=O)N[C@@H](CCC(=O)O)C(=O)N[C@@H](CC(N)=O)C(=O)N[C@H](C(=O)N[C@@H](Cc1ccc(O)cc1)C(=O)N[C@@H](Cc1c[nH]c2ncccc12)C(=O)N[C@@H](CCC(=O)O)C(=O)N[C@@H](Cc1ccc(O)cc1)C(=O)N1CCC[C@H]1C(=O)N[C@H](C(=O)N1CCC[C@H]1C(N)=O)c1ccccc1)C(C)(C)C"}, "B3": {"name": "R3036 (peptide)", "peptide": "Ac-[Nva]C[Phg]T[Trp(7-aza)]EA[NMeS]HC[Nva]-NH2", "modifications": "linker 2-10 via mXylyl(4)"}, "B4": {"name": "R3154 (peptide)", "peptide": "Ac-CVEAFCD[Tle]Y[Trp(7-aza)]EYP[dPhg][Nva]-NH2", "modifications": "linker 1-6 via mXylyl(3)"}, "B5": {"name": "R3161 (peptide)", "peptide": "Ac-CAERFCD[Tle]Y[Trp(7-aza)]EYP[Phg]K-NH2", "modifications": "linker 1-6 via m‑xylyl"}, "B6": {"name": "R3033 (peptide)", "peptide": "Ac-[Nva]C[Phg]A[Trp(7-aza)]EY[NMeS]HC[Nva]-NH2", "modifications": "linker 2-10 via mXylyl(4)"}, "B7": {"name": "R3039 (peptide)", "peptide": "Ac-[Nva]C[Phg]T[Trp(7-aza)]EY[NMeS]HCA-NH2", "modifications": "linker 2-10 via mXylyl(4)"}, "B8": {"name": "R3004 (peptide)", "peptide": "Ac-[Nva]CYNN[Tle]E[Trp(7-aza)]EYP[Phg][Tle]-NH2", "SMILES": "CCC[C@H](NC(C)=O)C(=O)N[C@@H](CS)C(=O)N[C@@H](Cc1ccc(O)cc1)C(=O)N[C@@H](CC(N)=O)C(=O)N[C@@H](CC(N)=O)C(=O)N[C@H](C(=O)N[C@@H](CCC(=O)O)C(=O)N[C@@H](Cc1c[nH]c2ncccc12)C(=O)N[C@@H](CCC(=O)O)C(=O)N[C@@H](Cc1ccc(O)cc1)C(=O)N1CCC[C@H]1C(=O)N[C@H](C(=O)N[C@H](C(N)=O)C(C)(C)C)c1ccccc1)C(C)(C)C"}, "B9": {"name": "R3018 (peptide)", "peptide": "Ac-[Nva]CYEN[Tle]Y[Trp(7-aza)]ECP[Phg][Nva]-NH2", "modifications": "linker 2-10 via mXylyl″"}, "B10": {"name": "R3153 (peptide)", "peptide": "Ac-CVEAFCD[Tle]Y[Trp(7-aza)]EYP[Phg][Nva]-NH2", "modifications": "linker 1-6 via mXylyl(3)"}, "B11": {"name": "R3022 (peptide)", "peptide": "Ac-[Nva]C[Phg]T[Trp(7-aza)]EY[NMeS]HC[Nva]P[Nva]-NH2", "modifications": "cysteine pairing not given here"}, "B12": {"name": "R3042 (peptide)", "peptide": "Ac-[Nva]C[Phg]T[Trp(7-aza)]EY[NMeS]HC[Nva]-NH2", "modifications": "bridge 2-10"}, "B13": {"name": "R3156 (peptide)", "peptide": "Ac-CVERACD[Tle]Y[Trp(7-aza)]EYP[dPhg][Nva]-NH2", "modifications": "linker 1-6 via mXylyl(3)"}, "B14": {"name": "R3168 (peptide)", "peptide": "Ac-CVERFC[Ala(1H-tetrazol-5-yl)][Tle]Y[Trp(7-aza)]EYP[Chg][Nva]-NH2", "modifications": "linker 1-6 via mXylyl(3)"}, "B15": {"name": "R3035 (peptide)", "peptide": "Ac-[Nva]C[Phg]T[Trp(7-aza)]AY[NMeS]HC[Nva]-NH2", "modifications": "linker 2-10 via mXylyl(4)"}, "B16": {"name": "R3172 (peptide)", "peptide": "Ac-CVERFC[NMeD][Tle]Y[Trp(7-aza)]EYP[Chg][Nva]-NH2", "modifications": "linker 1-6 via m‑xylyl"}, "B17": {"name": "R3037 (peptide)", "peptide": "Ac-[Nva]C[Phg]T[Trp(7-aza)]EY[NMeA]HC[Nva]-NH2", "modifications": "linker 2-10 via mXylyl(4)"}, "B18": {"name": "R3050 (peptide)", "peptide": "Ac-[Nva]C[Phg]T[Trp(7-aza)]EY[NMeS]HC[Nva]-NH2", "modifications": "linker 2-10 via pXylyl"}, "B19": {"name": "R3023 (peptide)", "peptide": "Ac-YPYC[Phg][Trp(7-aza)][Tle]E[Nva]NY[Nva]E-NH2", "SMILES": "CCC[C@H](NC(=O)[C@H](Cc1ccc(O)cc1)NC(=O)[C@H](CC(N)=O)NC(=O)[C@H](CCC)NC(=O)[C@H](CCC(=O)O)NC(=O)[C@@H](NC(=O)[C@H](Cc1c[nH]c2ncccc12)NC(=O)[C@@H](NC(=O)[C@H](CS)NC(=O)[C@H](Cc1ccc(O)cc1)NC(=O)[C@@H]1CCCN1C(=O)[C@H](Cc1ccc(O)cc1)NC(C)=O)c1ccccc1)C(C)(C)C)C(=O)N[C@@H](CCC(=O)O)C(N)=O"}, "B20": {"name": "R3162 (peptide)", "peptide": "Ac-CAERFCD[Tle]Y[Trp(7-aza)]EYP[dPhg]K-NH2", "modifications": "linker 1-6 via m‑xylyl"}, "B21": {"name": "R3019 (peptide)", "peptide": "Ac-[Nva]CYEN[Tle]Y[Trp(7-aza)]EYP[Phg][Nva]C-NH2", "modifications": "linker 2-14 via mXylyl″"}, "B22": {"name": "R3049 (peptide)", "peptide": "Ac-[Nva]C[Phg]T[Trp(7-aza)]EY[NMeS]HC[Nva]-NH2", "modifications": "linker 2-10 via oXylylene", "SMILES": "CCC[C@H](NC(=O)[C@@H]1CSCc2ccccc2CSC[C@H](NC(=O)[C@H](CCC)NC(C)=O)C(=O)N[C@@H](c2ccccc2)C(=O)N[C@@H]([C@@H](C)O)C(=O)N[C@@H](Cc2c[nH]c3ncccc23)C(=O)N[C@@H](CCC(=O)O)C(=O)N[C@@H](Cc2ccc(O)cc2)C(=O)N(C)[C@@H](CO)C(=O)N[C@@H](Cc2c[nH]cn2)C(=O)N1)C(N)=O"}, "B23": {"name": "R3016 (peptide)", "peptide": "Ac-C[Tle]Y[Trp(7-aza)]EY[NMeS]HC-NH2", "modifications": "linker 1-9 via mXylyl″"}, "B24": {"name": "R3032 (peptide)", "peptide": "Ac-[Nva]CAT[Trp(7-aza)]EY[NMeS]HC[Nva]-NH2", "modifications": "linker 2-10 via mXylyl(4)"}, "B25": {"name": "R3020 (peptide)", "peptide": "MCSERYCEVRWEY-NH2", "modifications": "linker 2-7 via mXylyl″"}, "B26": {"name": "R3155 (peptide)", "peptide": "Ac-CVERACD[Tle]Y[Trp(7-aza)]EYP[Phg][Nva]-NH2", "modifications": "linker 1-6 via mXylyl(3)"}, "B27": {"name": "R3157 (peptide)", "peptide": "Ac-CVERFCA[Tle]Y[Trp(7-aza)]EYP[Phg][Nva]-NH2", "modifications": "linker 1-6 via m‑xylyl"}, "B28": {"name": "R3015 (peptide)", "peptide": "Ac-C[Phg]T[Trp(7-aza)]EY[NMeS]HC-NH2", "modifications": "linker 1-9 via mXylyl″"}, "B29": {"name": "R3040 (peptide)", "peptide": "Ac-[Nva]C[Phg]T[Trp(7-aza)]EY[NMeS]HC[Nva]P[Nva]", "modifications": "bridge 2-10"}, "B30": {"name": "R3001 (peptide)", "peptide": "Ac-[Nva]CYEN[Tle]Y[Trp(7-aza)]EY[Sar][Nva][NMeS]-NH2", "SMILES": "CCC[C@H](NC(C)=O)C(=O)N[C@@H](CS)C(=O)N[C@@H](Cc1ccc(O)cc1)C(=O)N[C@@H](CCC(=O)O)C(=O)N[C@@H](CC(N)=O)C(=O)N[C@H](C(=O)N[C@@H](Cc1ccc(O)cc1)C(=O)N[C@@H](Cc1c[nH]c2ncccc12)C(=O)N[C@@H](CCC(=O)O)C(=O)N[C@@H](Cc1ccc(O)cc1)C(=O)N(C)CC(=O)N[C@@H](CCC)C(=O)N(C)[C@@H](CO)C(N)=O)C(C)(C)C"}, "B31": {"name": "R3158 (peptide)", "peptide": "Ac-CVERFCA[Tle]Y[Trp(7-aza)]EYP[dPhg][Nva]-NH2", "modifications": "linker 1-6 via m‑xylyl"}, "B32": {"name": "R3031 (peptide)", "peptide": "Ac-AC[Phg]T[Trp(7-aza)]EY[NMeS]HC[Nva]-NH2", "modifications": "linker 2-10 via mXylyl(4)"}, "B33": {"name": "R3028 (peptide)", "peptide": "Ac-[Tle]Y[Trp(7-aza)]EYP[Phg][Nva]-NH2", "SMILES": "CCC[C@H](NC(=O)[C@@H](NC(=O)[C@@H]1CCCN1C(=O)[C@H](Cc1ccc(O)cc1)NC(=O)[C@H](CCC(=O)O)NC(=O)[C@H](Cc1c[nH]c2ncccc12)NC(=O)[C@H](Cc1ccc(O)cc1)NC(=O)[C@@H](NC(C)=O)C(C)(C)C)c1ccccc1)C(N)=O"}, "B34": {"name": "R3038 (peptide)", "peptide": "Ac-[Nva]C[Phg]T[Trp(7-aza)]EY[NMeS]AC[Nva]-NH2", "modifications": "linker 2-10 via mXylyl(4)"}, "B35": {"name": "R3166 (peptide)", "peptide": "Ac-CAERFCD[Tle]Y[Trp(7-aza)]EYP[Phg][Lys‑C8]-NH2", "modifications": "linker 1-6 via m‑xylyl"}}, "note": "Starred links: 1 amine or outer side, 2 acyl side, 3 side chain; linkers in the order of their positions; H or OH if unused. Positions of bridges follow the written chain, without caps; N, C: chain ends. Non-standard residues stand in square brackets, D forms with d. Primed or numbered codes have the meaning given here. No end group written: not given here. Lys‑C8 = N-ε-caprylic lysine, CCCCCCCC(=O)NCCCC[C@H](N[*:1])C(=O)[*:2]; mXylyl(3) = bridging moiety between the two residues given in brackets; m‑xylyl = bridging moiety between the two residues given in brackets; mXylyl″ = bridging moiety between the two marked residues; Ala(1H-tetrazol-5-yl) = N[C@@H](Cc1nnn[nH]1)C(=O)O; Trp(7-aza) = N[C@@H](Cc1c[nH]c2ncccc12)C(=O)O; mXylyl(4) = bridging moiety between residues; pXylyl = bridging moiety between residues; oXylylene = c1ccc(C[*:2])c(C[*:1])c1; NMeD = CN[C@@H](CC(=O)O)C(=O)O; dPhg = N[C@@H](C(=O)O)c1ccccc1; Chg = N[C@H](C(=O)O)C1CCCCC1; Phg = N[C@H](C(=O)O)c1ccccc1; Tle = CC(C)(C)[C@H](N)C(=O)O; Lys‑C12 = N-ε-lauryl lysine; NMeS = CN[C@@H](CO)C(=O)O; NMeA = CN[C@@H](C)C(=O)O; Nva = CCC[C@H](N)C(=O)O; Sar = CNCC(=O)O", "data": [{"biological_target": "human C5 protein (human, UniProt P01031 19-673; P01031 678-1676)", "test": "cell-based or functional assay", "units": {"Avg. IC50, human hemolysis assay": "nM"}, "values": [{"binder": "B1", "Avg. IC50, human hemolysis assay": 36}, {"binder": "B2", "Avg. IC50, human hemolysis assay": 13.9}, {"binder": "B3", "Avg. IC50, human hemolysis assay": "> 50000"}, {"binder": "B4", "Avg. IC50, human hemolysis assay": 592}, {"binder": "B5", "Avg. IC50, human hemolysis assay": 7}, {"binder": "B6", "Avg. IC50, human hemolysis assay": 131}, {"binder": "B7", "Avg. IC50, human hemolysis assay": 240}, {"binder": "B8", "Avg. IC50, human hemolysis assay": 53.5}, {"binder": "B9", "Avg. IC50, human hemolysis assay": "> 5730"}, {"binder": "B10", "Avg. IC50, human hemolysis assay": 175}, {"binder": "B11", "Avg. IC50, human hemolysis assay": "> 10200"}, {"binder": "B12", "Avg. IC50, human hemolysis assay": "> 100000"}, {"binder": "B13", "Avg. IC50, human hemolysis assay": "> 10000"}, {"binder": "B14", "Avg. IC50, human hemolysis assay": 7.5}, {"binder": "B15", "Avg. IC50, human hemolysis assay": "> 50000"}, {"binder": "B16", "Avg. IC50, human hemolysis assay": 12}, {"binder": "B17", "Avg. IC50, human hemolysis assay": 276}, {"binder": "B18", "Avg. IC50, human hemolysis assay": 42.9}, {"binder": "B19", "Avg. IC50, human hemolysis assay": "> 100000"}, {"binder": "B20", "Avg. IC50, human hemolysis assay": 16.5}, {"binder": "B21", "Avg. IC50, human hemolysis assay": 1320}, {"binder": "B22", "Avg. IC50, human hemolysis assay": "> 3100"}, {"binder": "B23", "Avg. IC50, human hemolysis assay": "> 13000"}, {"binder": "B24", "Avg. IC50, human hemolysis assay": "> 10000"}, {"binder": "B25", "Avg. IC50, human hemolysis assay": 24.6}, {"binder": "B26", "Avg. IC50, human hemolysis assay": 1530}, {"binder": "B27", "Avg. IC50, human hemolysis assay": 84.5}, {"binder": "B28", "Avg. IC50, human hemolysis assay": "> 3960"}, {"binder": "B29", "Avg. IC50, human hemolysis assay": "> 100000"}, {"binder": "B30", "Avg. IC50, human hemolysis assay": 67.2}, {"binder": "B31", "Avg. IC50, human hemolysis assay": 327}, {"binder": "B32", "Avg. IC50, human hemolysis assay": 1090}, {"binder": "B33", "Avg. IC50, human hemolysis assay": "> 10000"}, {"binder": "B34", "Avg. IC50, human hemolysis assay": 140}, {"binder": "B35", "Avg. IC50, human hemolysis assay": 17.5}]}]}
